From patent US20240018237A1 (SICHUAN KELUN BIOTECH BIOPHARMACEUTICAL, published 2024)

Columns and labels:
[1] = target: T1, human ROR1 (full-length, on the cell surface) (human, UniProt Q01973 30-937); assay: flow cytometry, A549 cells
T1 construct: whole, on cells; the tumour cell lines carry their own ROR1; also called Ba/F3-ROR1 cells; Jeko-1
Protocol: (§1) The affinities of the anti-human ROR1 humanized antibodies to Ba/F3-ROR1, Jeko-1, HT-29 and A549 cells were detected by flow cytometry. The specific experimental steps were as follows: the BaBF3-ROR1, Jeko-1, HT-29 and A549 cells were incubated with the purified humanized antibodies of different concentration gradients on ice for 30 minutes, and the anti-ROR1 antibody UC961 with human IgG1 and the anti-TNP antibody were used as positive and negative controls, respectively.

[2] = target: T1, human ROR1 (full-length, on the cell …); assay: flow cytometry, HT-29 cells
Protocol: as §1

[3] = target: T1, human ROR1 (full-length, on the cell …); assay: flow cytometry, Jeko-1 cells
Protocol: as §1

[4] = target: T1, human ROR1 (full-length, on the cell …); assay: flow cytometry, Ba/F3-ROR1 cells
Protocol: as §1

T1 sequence (Q01973 30-937): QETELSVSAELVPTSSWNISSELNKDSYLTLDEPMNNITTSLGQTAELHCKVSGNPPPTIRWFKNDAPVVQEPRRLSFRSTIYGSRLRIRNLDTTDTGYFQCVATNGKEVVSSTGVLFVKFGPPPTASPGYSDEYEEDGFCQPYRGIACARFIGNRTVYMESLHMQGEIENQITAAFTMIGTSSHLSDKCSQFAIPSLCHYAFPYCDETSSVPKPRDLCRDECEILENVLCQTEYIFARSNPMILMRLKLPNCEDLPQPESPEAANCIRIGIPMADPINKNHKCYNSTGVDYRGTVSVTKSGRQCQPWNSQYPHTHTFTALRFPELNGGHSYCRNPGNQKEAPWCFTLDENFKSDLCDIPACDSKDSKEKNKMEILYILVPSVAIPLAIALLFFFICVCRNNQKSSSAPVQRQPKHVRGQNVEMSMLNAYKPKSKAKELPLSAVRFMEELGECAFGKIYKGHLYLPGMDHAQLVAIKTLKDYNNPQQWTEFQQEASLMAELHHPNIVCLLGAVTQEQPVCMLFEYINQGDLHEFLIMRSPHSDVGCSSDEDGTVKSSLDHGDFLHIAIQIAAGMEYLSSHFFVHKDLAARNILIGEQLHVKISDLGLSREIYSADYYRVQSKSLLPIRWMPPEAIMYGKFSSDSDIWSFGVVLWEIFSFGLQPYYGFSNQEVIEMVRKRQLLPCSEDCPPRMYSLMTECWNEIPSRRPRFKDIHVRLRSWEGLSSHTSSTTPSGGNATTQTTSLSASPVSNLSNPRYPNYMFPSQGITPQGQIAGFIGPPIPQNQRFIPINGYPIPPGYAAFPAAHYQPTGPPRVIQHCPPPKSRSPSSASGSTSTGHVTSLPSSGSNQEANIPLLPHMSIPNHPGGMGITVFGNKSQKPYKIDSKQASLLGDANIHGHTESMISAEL

EC50 [1] [nM] | EC50 [2] [nM] | EC50 [3] [nM] | EC50 [4] [nM] | Binder
0.2 | 0.35 | 0.08 | 0.39 | 3D8-Hu46 (antibody, human IgG1, kappa, V domains shown, humanized, human IgG1 / kappa) VH: EVQLVESGGGLVQPGGSLRLSCAASGFTFSSYAMSWVRQAPGKGLEWVSSINSGGSTYYPDSVKGRFTISRDNSKNTLYLQMNSLRAEDTAVYYCARVNYYGYGDYAMDYWGQGTLVTVSS VL: DIQMTQSPSSLSASVGDRVTITCQASQDINSYLSWFQQKPGKSPKTLIYRANRLVTGVPSRFSGSGSGTDYTFTISSLQPEDIATYYCLQYDEFPYTFGGGTKLEIKR
0.23 | 0.19 | 0.03 | 0.23 | 3D8-HuC54 (antibody, human IgG1, kappa, V domains shown, humanized, human IgG1 / kappa) VH: EVQLVESGGGLVQPGGSLRLSCAASGFTFSSYAMSWVRQAPGKGLEWVSSINSGGSTYYPDSVKGRFTISRENAKNSLYLQMNSLRAGDTAVYYCARVNYYGYGDYAMDYWGQGTLVTVSS VL: DIQMTQSPSSLSASVGDRVTITCQASQDISNYLTWFQQKPGKSPKTLIHRANRLVTGVPSRFSGSGSGTDFTFTISSLQPEDIATYYCLQYDEFPYTFGGGTKVEIKR
0.58 | 0.52 | 0.43 | 0.3 | 3D8-Hu97 (antibody, human IgG1, kappa, V domains shown, humanized, human IgG1 / kappa) VH: EVQLVESGGGLVQPGGSLRLSCAASGFTFSSYAMSWVRQAPEKRLEWVSSISNGGSTYYPDSVKGRFTISRDNSKNTLYLQMNSLRAEDTAVYYCARVNYYGYGDYAMDYWGQGTLVTVSS VL: DIQMTQSPSSLSASVGDRVTITCQASQDISNYLSWFQQKPGKSPKTLIYRANRLVTGVPSRFSGSGSGTDYTFTISSLQPEDIATYYCLQYDEFPYTFGGGTKLEIKR
0.19 | 0.2 | 0.08 | 0.33 | 3D8-Hu45 (antibody, human IgG1, kappa, V domains shown, humanized, human IgG1 / kappa) VH: EVQLVESGGGLVQPGGSLRLSCAASGFTFSSYAMSWVRQAPGKGLEWVSSINSGGSTYYPDSVKGRFTISRDNSKNTLYLQMNSLRAEDTAVYYCARVNYYGYGDYAMDYWGQGTLVTVSS VL: DIQMTQSPSSLSASVGDRVTITCQASQDINSYLSWFQQKPGKAPKTLIYRANRLVTGVPSRFSGSGSGTDFTFTISSLQPEDIATYYCLQYDEFPYTFGGGTKLEIKR
0.91 | 0.27 | 0.04 | 0.2 | 3D8-Hu27 (antibody, human IgG1, kappa, V domains shown, humanized, human IgG1 / kappa) VH: EVQLVESGGGLVQPGGSLRLSCAASGFTFSSYAMSWVRQAPGKGLEWVASINSGGSTYYPDSVKGRFTISRDNAKNSLYLQMNSLRAEDTAVYYCARVNYYGYGDYAMDYWGQGTLVTVSS VL: DIQMTQSPSSLSASVGDRVTITCQASQDISNYLSWFQQKPGKSPKTLIYRANRLVTGVPSRFSGSGSGTDYTFTISSLQPEDIATYYCLQYDEFPYTFGGGTKLEIKR
0.2 | 0.26 | 0.08 | 0.29 | 3D8-Hu26 (antibody, human IgG1, kappa, V domains shown, humanized, human IgG1 / kappa) VH: EVQLVESGGGLVQPGGSLRLSCAASGFTFSSYAMSWVRQAPGKGLEWVASINSGGSTYYPDSVKGRFTISRDNAKNSLYLQMNSLRAEDTAVYYCARVNYYGYGDYAMDYWGQGTLVTVSS VL: DIQMTQSPSSLSASVGDRVTITCQASQDINSYLSWFQQKPGKSPKTLIYRANRLVTGVPSRFSGSGSGTDYTFTISSLQPEDIATYYCLQYDEFPYTFGGGTKLEIKR
0.56 | 0.36 | 0.13 | 0.32 | 3D8-Hu95 (antibody, human IgG1, kappa, V domains shown, humanized, human IgG1 / kappa) VH: EVQLVESGGGLVQPGGSLRLSCAASGFTFSSYAMSWVRQAPEKRLEWVSSISNGGSTYYPDSVKGRFTISRDNSKNTLYLQMNSLRAEDTAVYYCARVNYYGYGDYAMDYWGQGTLVTVSS VL: DIQMTQSPSSLSASVGDRVTITCQASQDINSYLSWFQQKPGKAPKTLIYRANRLVTGVPSRFSGSGSGTDFTFTISSLQPEDIATYYCLQYDEFPYTFGGGTKLEIKR
0.23 | 0.17 | 0.04 | 0.33 | 3D8-Hu55 (antibody, human IgG1, kappa, V domains shown, humanized, human IgG1 / kappa) VH: EVQLVESGGGLVQPGGSLRLSCAASGFTFSSYAMSWVRQAPGKGLEWVSSINSGGSTYYPDSVKGRFTISRENAKNSLYLQMNSLRAGDTAVYYCARVNYYGYGDYAMDYWGQGTLVTVSS VL: DIQMTQSPSSLSASVGDRVTITCQASQDINSYLSWFQQKPGKAPKTLIYRANRLVTGVPSRFSGSGSGTDFTFTISSLQPEDIATYYCLQYDEFPYTFGGGTKLEIKR
0.55 | 0.27 | 0.17 | 0.21 | 3D8-Hu87 (antibody, human IgG1, kappa, V domains shown, humanized, human IgG1 / kappa) VH: EVQLVESGGGLVQPGGSLRLSCAASGFTFSSYAMSWVRQAPEKRLEWVSSISSGGSTYYPDSVKGRFTISRDNSKNTLYLQMNSLRAEDTAVYYCARVNYYGYGDYAMDYWGQGTLVTVSS VL: DIQMTQSPSSLSASVGDRVTITCQASQDISNYLSWFQQKPGKSPKTLIYRANRLVTGVPSRFSGSGSGTDYTFTISSLQPEDIATYYCLQYDEFPYTFGGGTKLEIKR
0.31 | 0.29 | 0.08 | 0.28 | 3D8-Hu47 (antibody, human IgG1, kappa, V domains shown, humanized, human IgG1 / kappa) VH: EVQLVESGGGLVQPGGSLRLSCAASGFTFSSYAMSWVRQAPGKGLEWVSSINSGGSTYYPDSVKGRFTISRDNSKNTLYLQMNSLRAEDTAVYYCARVNYYGYGDYAMDYWGQGTLVTVSS VL: DIQMTQSPSSLSASVGDRVTITCQASQDISNYLSWFQQKPGKSPKTLIYRANRLVTGVPSRFSGSGSGTDYTFTISSLQPEDIATYYCLQYDEFPYTFGGGTKLEIKR
0.28 | 0.28 | 0.05 | 0.3 | 3D8-Hu86 (antibody, human IgG1, kappa, V domains shown, humanized, human IgG1 / kappa) VH: EVQLVESGGGLVQPGGSLRLSCAASGFTFSSYAMSWVRQAPEKRLEWVSSISSGGSTYYPDSVKGRFTISRDNSKNTLYLQMNSLRAEDTAVYYCARVNYYGYGDYAMDYWGQGTLVTVSS VL: DIQMTQSPSSLSASVGDRVTITCQASQDINSYLSWFQQKPGKSPKTLIYRANRLVTGVPSRFSGSGSGTDYTFTISSLQPEDIATYYCLQYDEFPYTFGGGTKLEIKR
0.45 | 0.25 | 0.11 | 0.25 | 3D8-Hu85 (antibody, human IgG1, kappa, V domains shown, humanized, human IgG1 / kappa) VH: EVQLVESGGGLVQPGGSLRLSCAASGFTFSSYAMSWVRQAPEKRLEWVSSISSGGSTYYPDSVKGRFTISRDNSKNTLYLQMNSLRAEDTAVYYCARVNYYGYGDYAMDYWGQGTLVTVSS VL: DIQMTQSPSSLSASVGDRVTITCQASQDINSYLSWFQQKPGKAPKTLIYRANRLVTGVPSRFSGSGSGTDFTFTISSLQPEDIATYYCLQYDEFPYTFGGGTKLEIKR
0.22 | 0.23 | 0.07 | 0.29 | 3D8-Hu25 (antibody, human IgG1, kappa, V domains shown, humanized, human IgG1 / kappa) VH: EVQLVESGGGLVQPGGSLRLSCAASGFTFSSYAMSWVRQAPGKGLEWVASINSGGSTYYPDSVKGRFTISRDNAKNSLYLQMNSLRAEDTAVYYCARVNYYGYGDYAMDYWGQGTLVTVSS VL: DIQMTQSPSSLSASVGDRVTITCQASQDINSYLSWFQQKPGKAPKTLIYRANRLVTGVPSRFSGSGSGTDFTFTISSLQPEDIATYYCLQYDEFPYTFGGGTKLEIKR
0.18 | 0.16 | 0.03 | 0.28 | 3D8-HuC44 (antibody, human IgG1, kappa, V domains shown, humanized, human IgG1 / kappa) VH: EVQLVESGGGLVQPGGSLRLSCAASGFTFSSYAMSWVRQAPGKGLEWVSSINSGGSTYYPDSVKGRFTISRDNSKNTLYLQMNSLRAEDTAVYYCARVNYYGYGDYAMDYWGQGTLVTVSS VL: DIQMTQSPSSLSASVGDRVTITCQASQDISNYLTWFQQKPGKSPKTLIHRANRLVTGVPSRFSGSGSGTDFTFTISSLQPEDIATYYCLQYDEFPYTFGGGTKVEIKR
0.27 | 0.28 | 0.13 | 0.37 | 3D8-Hu57 (antibody, human IgG1, kappa, V domains shown, humanized, human IgG1 / kappa) VH: EVQLVESGGGLVQPGGSLRLSCAASGFTFSSYAMSWVRQAPGKGLEWVSSINSGGSTYYPDSVKGRFTISRENAKNSLYLQMNSLRAGDTAVYYCARVNYYGYGDYAMDYWGQGTLVTVSS VL: DIQMTQSPSSLSASVGDRVTITCQASQDISNYLSWFQQKPGKSPKTLIYRANRLVTGVPSRFSGSGSGTDYTFTISSLQPEDIATYYCLQYDEFPYTFGGGTKLEIKR
0.54 | 0.3 | 0.11 | 0.3 | 3D8-Hu96 (antibody, human IgG1, kappa, V domains shown, humanized, human IgG1 / kappa) VH: EVQLVESGGGLVQPGGSLRLSCAASGFTFSSYAMSWVRQAPEKRLEWVSSISNGGSTYYPDSVKGRFTISRDNSKNTLYLQMNSLRAEDTAVYYCARVNYYGYGDYAMDYWGQGTLVTVSS VL: DIQMTQSPSSLSASVGDRVTITCQASQDINSYLSWFQQKPGKSPKTLIYRANRLVTGVPSRFSGSGSGTDYTFTISSLQPEDIATYYCLQYDEFPYTFGGGTKLEIKR
0.3 | 0.29 | 0.09 | 0.33 | 3D8-Hu56 (antibody, human IgG1, kappa, V domains shown, humanized, human IgG1 / kappa) VH: EVQLVESGGGLVQPGGSLRLSCAASGFTFSSYAMSWVRQAPGKGLEWVSSINSGGSTYYPDSVKGRFTISRENAKNSLYLQMNSLRAGDTAVYYCARVNYYGYGDYAMDYWGQGTLVTVSS VL: DIQMTQSPSSLSASVGDRVTITCQASQDINSYLSWFQQKPGKSPKTLIYRANRLVTGVPSRFSGSGSGTDYTFTISSLQPEDIATYYCLQYDEFPYTFGGGTKLEIKR
